Results reported in patent publication US20150307628A1.

Key:
[1] = molecular target: dummy-Fc heavy chain constant region with CH3B of mutant EW-RVT (S-S) (Q347R/S354C/D399V/F405T) (human) [IgG part: P0DOX5]; assay: non-reducing SDS-PAGE, EW-RVT (S-S) against EW-RVT
[2] = molecular target: dummy-Fc heavy chain constant region with CH3B of mutant SW-WVT (S-S) (Y349C/E357W/D399V/F405T) (human) [IgG part: P0DOX5]; assay: non-reducing SDS-PAGE, SW-WVT (S-S) against SW-WVT

Row | greater heterodimer formability than the variant without disulfide bridge [1] [%] | greater heterodimer formability than the variant without disulfide bridge [2] [%] | Substance
1 | 3 |  | hAY4a scFv-Fc heavy chain with CH3A of mutant EW-RVT (S-S) (Y349C/K360E/K409W) (from UniProt P0DOX5 227-449) (Fc fusion)
2 |  | 9 | hAY4a scFv-Fc heavy chain with CH3A of mutant SW-WVT (S-S) (Y349S/S354C/K409W) (from UniProt P0DOX5 227-449) (Fc fusion)
